Assays:
recombinant human BTN3A1 = molecular target: T1, recombinant human BTN3A1 (human, UniProt O00481 30-254); test: SPR
T1 construct: Soluble form of the antigen used in SPR; also called rhBTN3A1; recombinant BTN3A1 protein

recombinant human PD-L1 = molecular target: T2, recombinant human PD-L1 (human, UniProt Q9NZQ7 19-239, limits assumed); test: SPR
T2 construct: Soluble antigen in SPR; also called rhPD-L1

[1] = molecular target: T3, PD-L1 at the surface of transduced cells (UniProt Q9NZQ7 19-290, limits assumed); test: flow cytometry, CHO-PD-L1 cells
T3 construct: whole, on cells; CHO-PD-L1 cells in flow cytometry, Raji-PD-L1 cells in the reporter assay; also called CHO-PD-L1; Raji-PD-L1

[2] = molecular target: T4, BTN3A1 at the surface of HEK-BTN3A1 cells (human, UniProt O00481 30-513); test: flow cytometry, HEK-BTN3A1 cells
T4 construct: HEK 293T BTN2A/BTN3A KO cells transduced with a BTN3A1 expressing vector
T4 sequence (O00481 30-513 limits assumed): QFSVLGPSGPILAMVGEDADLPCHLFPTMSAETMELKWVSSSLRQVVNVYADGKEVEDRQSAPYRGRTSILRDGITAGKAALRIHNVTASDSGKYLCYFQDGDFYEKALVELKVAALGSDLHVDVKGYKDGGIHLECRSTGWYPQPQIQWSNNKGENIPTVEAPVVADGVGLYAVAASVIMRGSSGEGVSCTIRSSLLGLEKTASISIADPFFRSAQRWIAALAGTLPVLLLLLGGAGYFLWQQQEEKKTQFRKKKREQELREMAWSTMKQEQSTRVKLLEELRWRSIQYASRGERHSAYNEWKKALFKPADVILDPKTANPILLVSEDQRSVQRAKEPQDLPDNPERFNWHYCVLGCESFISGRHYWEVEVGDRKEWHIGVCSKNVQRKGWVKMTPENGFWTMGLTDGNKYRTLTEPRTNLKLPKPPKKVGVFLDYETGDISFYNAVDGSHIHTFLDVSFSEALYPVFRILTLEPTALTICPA

T3 sequence (Q9NZQ7 19-290 limits assumed): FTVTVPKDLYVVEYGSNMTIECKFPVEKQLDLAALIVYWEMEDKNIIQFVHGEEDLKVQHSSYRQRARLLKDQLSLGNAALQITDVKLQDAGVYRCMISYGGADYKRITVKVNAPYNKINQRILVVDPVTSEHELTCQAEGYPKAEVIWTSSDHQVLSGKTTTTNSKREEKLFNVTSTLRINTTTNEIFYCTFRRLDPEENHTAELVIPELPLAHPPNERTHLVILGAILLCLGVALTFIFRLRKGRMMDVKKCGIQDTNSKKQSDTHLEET
T2 sequence (Q9NZQ7 19-239 limits assumed): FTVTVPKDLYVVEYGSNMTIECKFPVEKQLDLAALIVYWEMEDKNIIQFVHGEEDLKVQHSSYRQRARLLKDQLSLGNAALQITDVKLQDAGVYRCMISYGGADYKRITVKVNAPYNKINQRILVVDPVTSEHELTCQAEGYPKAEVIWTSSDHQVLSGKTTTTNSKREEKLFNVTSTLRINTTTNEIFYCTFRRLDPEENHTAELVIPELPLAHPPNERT
T1 sequence (O00481 30-254 limits assumed): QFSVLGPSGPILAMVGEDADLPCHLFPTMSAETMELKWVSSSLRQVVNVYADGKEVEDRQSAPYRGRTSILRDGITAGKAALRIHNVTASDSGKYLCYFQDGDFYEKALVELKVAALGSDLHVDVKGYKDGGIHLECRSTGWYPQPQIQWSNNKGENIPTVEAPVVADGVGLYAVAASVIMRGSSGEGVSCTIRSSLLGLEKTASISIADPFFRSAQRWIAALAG

Binder | Kd (recombinant human BTN3A1) | Kd (recombinant human PD-L1) | MFI at 10 nM [1] | MFI at 100 nM [1] | MFI at 10 nM [2] | MFI at 100 nM [2]
bsAb036 (bispecific antibody, one Fab arm anti-PD-L1, two scFv anti-BTN3A; not shown: IgG1 CH1-hinge-CH2-CH3; CH2-CH3 (Fc)) heavy (part 1 of 2): EVQLVESGGGLVQPGGSLRLSCAASGFTFSRYWMSWVRQAPGKGLEWVANIKQDGSEKYYVDSVKGRFTISRDNAKNSLYLQMNSLRAEDTAVYYCAREGGWFGELAFDYWGQGTLVTVSS heavy (part 2 of 2): GGGGSGGGGSGGGGSGGGGSQVQLVQSGAEVKKPGASVKLSCKASGYIFTRYYMYWVKQRPGQGLEWIGEINPNNGGTKFNEKFKNRATLTVDKSISTAYMELSRLRSDDTAVYYCSREDDYDGTPFAMDYWGQGTLVTVSSGGGGSGGGGSGGGGSGGGGSDIQMTQSPSSLSASVGDRVTITCHASQNINVWLSWYQQKPGKAPKLLIYKASNLHTGVPSRFTGSGSGTDFTFTISSLQPEDIATYYCQQGQTYPYTFGQGTKLEIK heavy: GGGGSGGGGSGGGGSGGGGSQVQLVQSGAEVKKPGASVKLSCKASGYIFTRYYMYWVKQRPGQGLEWIGEINPNNGGTKFNEKFKNRATLTVDKSISTAYMELSRLRSDDTAVYYCSREDDYDGTPFAMDYWGQGTLVTVSSGGGGSGGGGSGGGGSGGGGSDIQMTQSPSSLSASVGDRVTITCHASQNINVWLSWYQQKPGKAPKLLIYKASNLHTGVPSRFTGSGSGTDFTFTISSLQPEDIATYYCQQGQTYPYTFGQGTKLEIK light: EIVLTQSPGTLSLSPGERATLSCRASQRVSSSYLAWYQQKPGQAPRLLIYDASSRATGIPDRFSGSGSGTDFTLTISRLEPEDFAVYYCQQYGSLPWTFGQGTKVEIKRTVAAPSVFIFPPSDEQLKSGTASVVCLLNNFYPREAKVQWKVDNALQSGNSQESVTEQDSKDSTYSLSSTLTLSKADYEKHKVYACEVTHQGLSSPVTKSFNRGEC | 0.457 nM | 0.055 nM | 1.03e+06 MFI | 1.24e+06 MFI | 682000 MFI | 1.22e+06 MFI
bsAb069 (bispecific antibody, not shown: IgG1 CH1-hinge-CH2-CH3; CH2-CH3 (Fc)) heavy 1: EVQLVESGGGLVQPGGSLRLSCAASGFTFSRYWMSWVRQAPGKGLEWVANIKQDGSEKYYVDSVKGRFTISRDNAKNSLYLQMNSLRAEDTAVYYCAREGGWFGELAFDYWGQGTLVTVSS heavy 2: DIQMTQSPSSLSASVGDRVTITCHASQNINVWLSWYQQKPGKAPKLLIYKASNLHTGVPSRFTGSGSGTDFTFTISSLQPEDIATYYCQQGQTYPYTFGQGTKLEIKGGGGSGGGGSGGGGSGGGGSQVQLVQSGAEVKKPGASVKLSCKASGYIFTRYYMYWVKQRPGQGLEWIGEINPNNGGTKFNEKFKNRATLTVDKSISTAYMELSRLRSDDTAVYYCSREDDYDGTPFAMDYWGQGTLVTVSSGGGGSGGGGSGGGGSGGGGS light: EIVLTQSPGTLSLSPGERATLSCRASQRVSSSYLAWYQQKPGQAPRLLIYDASSRATGIPDRFSGSGSGTDFTLTISRLEPEDFAVYYCQQYGSLPWTFGQGTKVEIKRTVAAPSVFIFPPSDEQLKSGTASVVCLLNNFYPREAKVQWKVDNALQSGNSQESVTEQDSKDSTYSLSSTLTLSKADYEKHKVYACEVTHQGLSSPVTKSFNRGECGGGGSGGGGSGGGGSGGGGSQVQLVQSGAEVKKPGASVKLSCKASGYIFTRYYMYWVKQRPGQGLEWIGEINPNNGGTKFNEKFKNRATLTVDKSISTAYMELSRLRSDDTAVYYCSREDDYDGTPFAMDYWGQGTLVTVSSGGGGSGGGGSGGGGSGGGGSDIQMTQSPSSLSASVGDRVTITCHASQNINVWLSWYQQKPGKAPKLLIYKASNLHTGVPSRFTGSGSGTDFTFTISSLQPEDIATYYCQQGQTYPYTFGQGTKLEIK | 0.1 nM | 0.076 nM | 1.02e+06 MFI | 1.16e+06 MFI | 635000 MFI | 1.18e+06 MFI
bsAb041 (bispecific antibody, one Fab arm anti-PD-L1, two scFv anti-BTN3A; not shown: IgG1 CH1-hinge-CH2-CH3; CH2-CH3 (Fc)) heavy (part 1 of 2): EVQLVESGGGLVQPGGSLRLSCAASGFTFSRYWMSWVRQAPGKGLEWVANIKQDGSEKYYVDSVKGRFTISRDNAKNSLYLQMNSLRAEDTAVYYCAREGGWFGELAFDYWGQGTLVTVSS heavy (part 2 of 2): GGGGSGGGGSGGGGSGGGGSDIQMTQSPSSLSASVGDRVTITCHASQNINVWLSWYQQKPGKAPKLLIYKASNLHTGVPSRFTGSGSGTDFTFTISSLQPEDIATYYCQQGQTYPYTFGQGTKLEIKGGGGSGGGGSGGGGSGGGGSQVQLVQSGAEVKKPGASVKLSCKASGYIFTRYYMYWVKQRPGQGLEWIGEINPNNGGTKFNEKFKNRATLTVDKSISTAYMELSRLRSDDTAVYYCSREDDYDGTPFAMDYWGQGTLVTVSS heavy: GGGGSGGGGSGGGGSGGGGSDIQMTQSPSSLSASVGDRVTITCHASQNINVWLSWYQQKPGKAPKLLIYKASNLHTGVPSRFTGSGSGTDFTFTISSLQPEDIATYYCQQGQTYPYTFGQGTKLEIKGGGGSGGGGSGGGGSGGGGSQVQLVQSGAEVKKPGASVKLSCKASGYIFTRYYMYWVKQRPGQGLEWIGEINPNNGGTKFNEKFKNRATLTVDKSISTAYMELSRLRSDDTAVYYCSREDDYDGTPFAMDYWGQGTLVTVSS light: EIVLTQSPGTLSLSPGERATLSCRASQRVSSSYLAWYQQKPGQAPRLLIYDASSRATGIPDRFSGSGSGTDFTLTISRLEPEDFAVYYCQQYGSLPWTFGQGTKVEIKRTVAAPSVFIFPPSDEQLKSGTASVVCLLNNFYPREAKVQWKVDNALQSGNSQESVTEQDSKDSTYSLSSTLTLSKADYEKHKVYACEVTHQGLSSPVTKSFNRGEC | 0.101 nM | 0.053 nM | 1.14e+06 MFI | 1.3e+06 MFI | 1.1e+06 MFI | 1.67e+06 MFI
bsAb054 (bispecific antibody, IgG anti-PD-L1, one scFv anti-BTN3A; not shown: IgG1 CH1-hinge-CH2-CH3) heavy (part 1 of 2): EVQLVESGGGLVQPGGSLRLSCAASGFTFSRYWMSWVRQAPGKGLEWVANIKQDGSEKYYVDSVKGRFTISRDNAKNSLYLQMNSLRAEDTAVYYCAREGGWFGELAFDYWGQGTLVTVSS heavy (part 2 of 2): GGGGSGGGGSGGGGSGGGGSQVQLVQSGAEVKKPGASVKLSCKASGYIFTRYYMYWVKQRPGQGLEWIGEINPNNGGTKFNEKFKNRATLTVDKSISTAYMELSRLRSDDTAVYYCSREDDYDGTPFAMDYWGQGTLVTVSSGGGGSGGGGSGGGGSGGGGSDIQMTQSPSSLSASVGDRVTITCHASQNINVWLSWYQQKPGKAPKLLIYKASNLHTGVPSRFTGSGSGTDFTFTISSLQPEDIATYYCQQGQTYPYTFGQGTKLEIK heavy: EVQLVESGGGLVQPGGSLRLSCAASGFTFSRYWMSWVRQAPGKGLEWVANIKQDGSEKYYVDSVKGRFTISRDNAKNSLYLQMNSLRAEDTAVYYCAREGGWFGELAFDYWGQGTLVTVSS light: EIVLTQSPGTLSLSPGERATLSCRASQRVSSSYLAWYQQKPGQAPRLLIYDASSRATGIPDRFSGSGSGTDFTLTISRLEPEDFAVYYCQQYGSLPWTFGQGTKVEIKRTVAAPSVFIFPPSDEQLKSGTASVVCLLNNFYPREAKVQWKVDNALQSGNSQESVTEQDSKDSTYSLSSTLTLSKADYEKHKVYACEVTHQGLSSPVTKSFNRGEC | 0.126 nM | 0.033 nM | 664000 MFI | 690000 MFI | 424000 MFI | 1.06e+06 MFI
